Measurements: the supplement of paper PMC11316812
± gives the standard deviation of the averaged measurements.

Columns and labels:
hTERT-HMEC = assay: percentage of EdU-negative (G0-arrested) nuclei per well, 72 h; higher = more G0 arrest; details: reference: sequence is the full UniProt precursor, the tested protein was the secreted form or ectodomain
MCF7 = assay: as above; details: reference: sequence is the full UniProt precursor, the tested protein was the secreted form or ectodomain
[1] = protein concentration 0.021155 µM
[2] = protein concentration 0.21155 µM
[3] = protein concentration 0.0225 µM
[4] = protein concentration 0.03125 µM
[5] = protein concentration 0.3125 µM
[6] = protein concentration 0.0135 µM
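Note: secreted proteins added to cultured cells, EdU pulse at the end, nuclei found by Hoechst imaging, EdU status from nuclear versus surrounding ring intensity ratio, PBS as neutral control.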

Sequence | percentage of EdU-negative (hTERT-HMEC; [3]) [%] | percentage of EdU-negative (hTERT-HMEC; protein concentration 0.225 µM) [%] | percentage of EdU-negative (MCF7; [3]) [%] | percentage of EdU-negative (MCF7; protein concentration 0.225 µM) [%] | other results
MSRQLLPVLLLLLLRASCPWGQEQGARSPSEEPPEEEIPKEDGILVLSRHTLGLALREHPALLVEFYAPWCGHCQALAPEYSKAAAVLAAESMVVTLAKVDGPAQRELAEEFGVTEYPTLKFFRNGNRTHPEEYTGPRDAEGIAEWLRRRVGPSAMRLEDEAAAQALIGGRDLVVIGFFQDLQDEDVATFLALAQDALDMTFGLTDRPRLFQQFGLTKDTVVLFKKFDEGRADFPVDEELGLDLGDLSRFLVTHSMRLVTEFNSQTSAKIFAARILNHLLLFVNQTLAAHRELLAGFGEAAPRFRGQVLFVVVDVAADNEHVLQYFGLKAEAAPTLRLVNLETTKKYAPVDGGPVTAASITAFCHAVLNGQVKPYLLSQEIPPDWDQRPVKTLVGKNFEQVAFDETKNVFVKFYAPWCTHCKEMAPAWEALAEKYQDHEDIIIAELDATANELDAFAVHGFPTLKYFPAGPGRKVIEYKSTRDLETFSKFLDNGGVLPTEEPPEEPAAPFPEPPANSTMGSKEEL |  |  |  |  | percentage of EdU-negative (hTERT-HMEC; [1]): 5.52 ± 0.95%; percentage of EdU-negative (hTERT-HMEC; [2]): 5.36 ± 0.59%; percentage of EdU-negative (MCF7; [1]): 34 ± 1.9%; percentage of EdU-negative (MCF7; [2]): 26.76 ± 0.05%
MSRREGSLEDPQTDSSVSLLPHLEAKIRQTHSLAHLLTKYAEQLLQEYVQLQGDPFGLPSFSPPRLPVAGLSAPAPSHAGLPVHERLRLDAAALAALPPLLDAVCRRQAELNPRAPRLLRRLEDAARQARALGAAVEALLAALGAANRGPRAEPPAATASAASATGVFPAKVLGLRVCGLYREWLSRTEGDLGQLLPGGSA | 4.52 ± 0.57 | 6.17 ± 0.093 | 25.7 ± 2.9 | 26.5 ± 1.6 | 
MSSAAGFCASRPGLLFLGLLLLPLVVAFASAEAEEDGDLQCLCVKTTSQVRPRHITSLEVIKAGPHCPTAQLIATLKNGRKICLDLQAPLYKKIIKKLLES |  |  |  |  | percentage of EdU-negative (hTERT-HMEC; [4]): 5.71 ± 0.5%; percentage of EdU-negative (hTERT-HMEC; [5]): 5.011 ± 0.0019%; percentage of EdU-negative (MCF7; [4]): 23.9 ± 0.55%; percentage of EdU-negative (MCF7; [5]): 26.1 ± 3.4%
MSSAARSRLTRATRQEMLFLALLLLPVVVAFARAEAEEDGDLQCLCVKTTSQVRPRHITSLEVIKAGPHCPTAQLIATLKNGRKICLDLQALLYKKIIKEHLES | 5.03 ± 0.052 | 5.8 ± 0.41 | 25.1 ± 0.73 | 24.9 ± 0.32 | 
MSSEEGKLFVGGLNFNTDEQALEDHFSSFGPISEVVVVKDRETQRSRGFGFITFTNPEHASVAMRAMNGESLDGRQIRVDHAGKSARGTRGGGFGAHGRGRSYSRGGGDQGYGSGRYYDSRPGGYGYGYGRSRDYNGRNQGGYDRYSGGNYRDNYDN |  |  |  |  | percentage of EdU-negative (hTERT-HMEC; [6]): 5 ± 0.36%; percentage of EdU-negative (hTERT-HMEC; protein concentration 0.135 µM): 8.05 ± 0.55%; percentage of EdU-negative (MCF7; [6]): 25.1 ± 3.6%; percentage of EdU-negative (MCF7; protein concentration 0.135 µM): 27 ± 1.7%
MSSENCFVAENSSLHPESGQENDATSPHFSTRHEGSFQVPVLCAVMNVVFITILIIALIALSVGQYNCPGQYTFSMPSDSHVSSCSEDWVGYQRKCYFISTVKRSWTSAQNACSEHGATLAVIDSEKDMNFLKRYAGREEHWVGLKKEPGHPWKWSNGKEFNNWFNVTGSDKCVFLKNTEVSSMECEKNLYWICNKPYK | 5.44 ± 1.4 | 5.3 ± 0.56 | 23.5 ± 0.69 | 23.6 ± 0.57 | 
MSSFGYRTLTVALFTLICCPGSDEKVFEVHVRPKKLAVEPKGSLEVNCSTTCNQPEVGGLETSLDKILLDEQAQWKHYLVSNISHDTVLQCHFTCSGKQESMNSNVSVYQPPRQVILTLQPTLVAVGKSFTIECRVPTVEPLDSLTLFLFRGNETLHYETFGKAAPAPQEATATFNSTADREDGHRNFSCLAVLDLMSRGGNIFHKHSAPKMLEIYEPVSDSQMVIIVTVVSVLLSLFVTSVLLCFIFGQHLRQQRMGTYGVRAAWRRLPQAFRP | 5.54 ± 0.21 | 6.02 ± 0.093 | 24.9 ± 0.91 | 27.28 ± 0.18 | 
MSSFSTTTVSFLLLLAFQLLGQTRANPMYNAVSNADLMDFKNLLDHLEEKMPLEDEVVPPQVLSEPNEEAGAALSPLPEVPPWTGEVSPAQRDGGALGRGPWDSSDRSALLKSKLRALLTAPRSLRRSSCFGGRMDRIGAQSGLGCNSFRY | 4.9 ± 0.49 | 6.92 ± 0.56 | 25 ± 2.1 | 25.7 ± 1.1 | 
MSSSCSGLSRVLVAVATALVSASSPCPQAWGPPGVQYGQPGRSVKLCCPGVTAGDPVSWFRDGEPKLLQGPDSGLGHELVLAQADSTDEGTYICQTLDGALGGTVTLQLGYPPARPVVSCQAADYENFSCTWSPSQISGLPTRYLTSYRKKTVLGADSQRRSPSTGPWPCPQDPLGAARCVVHGAEFWSQYRINVTEVNPLGASTRLLDVSLQSILRPDPPQGLRVESVPGYPRRLRASWTYPASWPCQPHFLLKFRLQYRPAQHPAWSTVEPAGLEEVITDAVAGLPHAVRVSARDFLDAGTWSTWSPEAWGTPSTGTIPKEIPAWGQLHTQPEVEPQVDSPAPPRPSLQPHPRLLDHRDSVEQVAVLASLGILSFLGLVAGALALGLWLRLRRGGKDGSPKPGFLASVIPVDRRPGAPNL |  |  |  |  | percentage of EdU-negative (hTERT-HMEC; [4]): 4.53 ± 0.46%; percentage of EdU-negative (hTERT-HMEC; [5]): 11.8 ± 0.14%; percentage of EdU-negative (MCF7; [4]): 26.9 ± 2%; percentage of EdU-negative (MCF7; [5]): 36.6 ± 0.72%
